{"source": "paper PMC5084153", "about": "“Structural studies on MRG701 chromodomain reveal a novel dimerization interface of MRG proteins in green plants” (Protein & Cell, 2016)", "molecules": {"B1": {"name": "MRG1 chromodomain (MRG1^CD, residues 28-110) (domain or fragment, Arabidopsis thaliana, UniProt Q94C32 28-110, looked up)", "chain": "LFSEGERVLAYHGPRVYGAKVQKVELRKKEWKYFVHYLGWNKNWDEWVSADRLLKHTEENLVKQKALDKKQGVEKGTKSGRSA", "notes": "MRG1 of Arabidopsis thaliana, chromodomain, residues 28-110; Homodimer by SEC-MALS; also called wild-type MRG1^CD; source: E. coli BL21 (DE3), purified (Ni HiTrap, tag removed by ULP enzyme, Superdex G75)"}}, "key": {"[1]": {"biological_target": "MRG701 chromodomain (MRG701^CD, residues 27-96) (Oryza sativa)", "assay": "ITC; MicroCal iTC200, 20°C, 20 mmol/L Tris pH 8.0, 100 mmol/L NaCl; protein 0.1-0.2 mmol/L in the cell, peptide 1-2 mmol/L in the syringe; one-site model"}, "[2]": {"biological_target": "MRG701 chromodomain mutant W56A (MRG701^CDW56A) (Oryza sativa)", "assay": "ITC; MicroCal iTC200, 20°C, 20 mmol/L Tris pH 8.0, 100 mmol/L NaCl; protein 0.1-0.2 mmol/L in the cell, peptide 1-2 mmol/L in the syringe; one-site model"}, "[3]": {"biological_target": "MRG701 chromodomain (MRG701^CD, residues 27-96) (Oryza sativa)", "assay": "SEC-MALS; Wyatt 015S5 (150 Å) column, 0.5 mL/min, 10 mmol/L Tris 8.0, 100 mmol/L NaCl; self-association of the chromodomain"}, "MRG2^CDE75A": {"biological_target": "T1, MRG2^CDE75A (Arabidopsis thaliana, UniProt Q4V3E2, E75A)", "T1 construct": "the Arabidopsis MRG2 chromodomain (MRG2^CD)", "type": "binding", "procedure": "(§1) ITC experiments were carried out at 20°C on a MicroCal iTC200. Protein and peptide were kept in an identical buffer of 20 mmol/L Tris pH 8.0, 100 mmol/L NaCl. The sample cell was filled with a 0.1–0.2-mmol/L solution of protein, and the injection syringe with 1–2 mmol/L of the titrating ligand. Each titration consisted of 20 2-μL injections with 2 min interval. Binding isotherms were analyzed by fitting data into the one-site model using the ITC data analysis module Origin 7.0 software."}, "MRG1^CDW58A": {"biological_target": "T2, MRG1^CDW58A (Arabidopsis thaliana, UniProt Q94C32, W58A)", "T2 construct": "Arabidopsis thaliana MRG1 (residues 28–110); His-SMT3 (SUMO) from modified pET28-SMT3 (N, cleaved yes); made in house; host or cells: Escherichia coli BL21 (DE3)", "type": "binding", "procedure": "The cDNA encoding the chromodomain of Arabidopsis thaliana MRG1 (residues 28–110) and Oryza sativa MRG701 (residues 27–96) were amplified by PCR and cloned into the modified pET28-SMT3 vector. Point mutants were generated by Site-Directed Mutagenesis kit (NEB) according to the manufacturer’s instructions. The plasmid was transformed into Escherichia coli strain BL21 (DE3). The cells were cultured in LB medium with 50 μg/mL kanamycin and induced by final concentration of 0.2 mmol/L isopropyl-β-d-thiogalactopyranoside (IPTG) at 18°C for 18 h. Cells were harvested and re-suspended in 20 mmol/L Tris pH 8.0, 500 mmol/L NaCl, 25 mmol/L imidazole and then broken by cell disruptor (JNBIO). The fusion protein was purified first with Ni HiTrap column (GE healthcare) and then removed the tag by ULP enzyme. The target protein was further purified with Superdex G75 Hiload 26/60 column (GE healthcare) and then concentrated to 20 mg/mL for structural and biochemical studies.\nas §1, with “Each titration consisted of 20 2-μL injections with 2 min interval.” left out"}, "[4]": {"biological_target": "the molecule itself", "assay": "SEC-MALS; Wyatt 015S5 (150 Å) column, 0.5 mL/min, 10 mmol/L Tris 8.0, 100 mmol/L NaCl; self-association of the chromodomain"}, "[5]": {"assay": "SEC-MALS analysis of oligomerization status in solution", "type": "physicochemical", "conditions": "for Observed molar mass by SEC-MALS: Wyatt 015S5 (150 Å) column, 0.5 mL/min, 10 mmol/L Tris 8.0, 100 mmol/L NaCl, multi-angle light scattering and differential refractive index; for oligomerization in crystal and in solution (in words): SEC-MALS and crystal structure", "procedure": "The absolute molar mass of target protein was determined by size exclusion chromatography coupled with multi-angel light scattering. The experiments were performed by an Agilent system connected with a Wyatt DAWN HELEOS-II multi-angle light scattering instrument and a Wyatt OptilabrEX differential refractometer. A Wyatt 015S5 (150 Å) column was used with a 100 μL sample loop at a flow rate of 0.5 mL/min in the running buffer of 10 mmol/L Tris 8.0, 100 mmol/L NaCl. The molar mass was calculated by light scattering intensity and differential refractive index using Wyatt ASTRA 6 software (Wyatt, [1993])."}, "[6]": {"biological_target": "T3, MRG2 chromodomain (MRG2^CD) (Arabidopsis, UniProt Q4V3E2 51-123)", "T3 chain": "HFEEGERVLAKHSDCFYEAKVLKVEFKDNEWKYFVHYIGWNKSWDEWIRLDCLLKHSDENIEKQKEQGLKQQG", "assay": "ITC"}, "[7]": {"biological_target": "T4, MRG1 chromodomain mutant W58A (MRG1^CDW58A) (Arabidopsis thaliana, UniProt Q94C32 28-110, W58A)", "T4 sequence": "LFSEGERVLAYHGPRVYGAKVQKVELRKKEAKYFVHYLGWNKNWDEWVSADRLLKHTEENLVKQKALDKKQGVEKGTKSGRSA", "assay": "ITC"}, "[8]": {"biological_target": "T5, MRG2 chromodomain mutant E75A (MRG2^CDE75A) (Arabidopsis, UniProt Q4V3E2 51-123, E75A)", "T5 sequence": "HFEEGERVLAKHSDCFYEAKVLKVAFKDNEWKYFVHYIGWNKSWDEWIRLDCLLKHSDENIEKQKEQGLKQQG", "assay": "ITC"}, "[9]": {"biological_target": "T6, MRG1 chromodomain mutant W58A (MRG1^CDW58A) (Arabidopsis thaliana, UniProt Q94C32 28-110, W58A)", "T6 construct": "MRG1 of Arabidopsis thaliana, chromodomain, residues 28-110, point mutant W58A; source: E. coli BL21 (DE3), purified (Ni HiTrap, tag removed by ULP enzyme, Superdex G75)", "T6 sequence (looked up)": "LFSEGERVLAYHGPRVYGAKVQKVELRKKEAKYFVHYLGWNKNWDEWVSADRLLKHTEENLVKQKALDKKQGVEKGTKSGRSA", "assay": "ITC; MicroCal iTC200, 20°C, 20 mmol/L Tris pH 8.0, 100 mmol/L NaCl; protein 0.1-0.2 mmol/L in the cell, peptide 1-2 mmol/L in the syringe; one-site model", "conditions": "both partners purified"}, "[10]": {"biological_target": "B1", "assay": "ITC; MicroCal iTC200, 20°C, 20 mmol/L Tris pH 8.0, 100 mmol/L NaCl; protein 0.1-0.2 mmol/L in the cell, peptide 1-2 mmol/L in the syringe; one-site model", "conditions": "both partners purified"}, "[11]": {"biological_target": "T7, MRG1 chromodomain (MRG1^CD, residues 28-110) (Arabidopsis thaliana, UniProt Q94C32 28-110)", "T7 chain": "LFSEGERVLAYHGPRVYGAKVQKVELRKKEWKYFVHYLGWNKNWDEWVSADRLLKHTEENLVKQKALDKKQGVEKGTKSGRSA", "assay": "ITC"}}, "note": "“And” between values parts separate entries of the source, which are not always exact repeats. Equal values may be shown once. Primed or numbered codes have the meaning given here. No end group written: not given here. Me3″ = trimethyl (trimethyl-lysine)", "data": [{"molecule": "histone H3K36me3 peptide (residues 31-41) (from UniProt P68431 32-42)", "values": [{"measurement": "Kd", "setting": "[1]", "result": 510, "unit": "µM"}, {"measurement": "Kd", "setting": "[2]", "result": 260, "unit": "µM"}]}, {"molecule": "MRG701 chromodomain (MRG701^CD, residues 27-96) (domain or fragment)", "values": [{"measurement": "stoichiometry N", "setting": "[3]", "result": 2}]}, {"molecule": "C[C@H](N)C(=O)N[C@@H](CCCNC(=N)N)C(=O)N[C@H](C(=O)N[C@@H](CCCC[N+](C)(C)C)C(=O)N[C@@H](CCC(N)=O)C(=O)N[C@H](C(=O)N[C@@H](C)C(=O)N[C@@H](CCCNC(=N)N)C(=O)N[C@@H](CCCCN)C(=O)O)[C@@H](C)O)[C@@H](C)O", "note": "[H3K4me3]", "values": [{"measurement": "difference of Kd between wild-type and mutant proteins (in words)", "setting": "MRG2^CDE75A", "result": "only mild differences"}, {"measurement": "difference of Kd between wild-type and mutant proteins (in words)", "setting": "MRG1^CDW58A", "result": "only mild differences"}]}, {"molecule": "B1", "values": [{"measurement": "stoichiometry N", "setting": "[4]", "result": 2}]}, {"molecule": "MRG1^CDW58A: point mutant of MRG1 chromodomain disrupting π-π stacking (protein, left off: SMT3 (from the modified vector pET28-SMT3), end not stated, cleaved, point mutant of MRG1 chromodomain disrupting π-π stacking) LFSEGERVLAYHGPRVYGAKVQKVELRKKEAKYFVHYLGWNKNWDEWVSADRLLKHTEENLVKQKALDKKQGVEKGTKSGRSA", "values": [{"measurement": "Observed molar mass by SEC-MALS", "setting": "[5]", "result": "13.4 kDa and 13.36 ± 1.40 kDa"}]}, {"molecule": "MRG1^CD: MRG1 chromodomain (residues 28–110), Arabidopsis thaliana (protein, left off: SMT3 (from the modified vector pET28-SMT3), end not stated, cleaved, MRG1 chromodomain (residues 28–110), Arabidopsis thaliana) LFSEGERVLAYHGPRVYGAKVQKVELRKKEWKYFVHYLGWNKNWDEWVSADRLLKHTEENLVKQKALDKKQGVEKGTKSGRSA", "values": [{"measurement": "oligomerization in crystal and in solution (in words)", "setting": "[5]", "result": "form dimers both in crystal and in solution"}, {"measurement": "Observed molar mass by SEC-MALS", "setting": "[5]", "result": "20.7 kDa and 20.67 ± 2.99 kDa"}]}, {"molecule": "ARTK(Me3″)QTARK (peptide, UniProt P68431 2-10, looked up, histone H3, residues 1-9, trimethylated at lysine 4)", "note": "[histone H3K4me3 peptide (residues 1-9)]", "values": [{"measurement": "Kd", "setting": "[6]", "result": 520, "unit": "µM"}, {"measurement": "Kd", "setting": "[7]", "result": 910, "unit": "µM"}, {"measurement": "Kd", "setting": "[8]", "result": 450, "unit": "µM"}, {"measurement": "binding result", "setting": "[9]", "result": "binds"}, {"measurement": "binding result", "setting": "[10]", "result": "binds"}, {"measurement": "Kd", "setting": "[11]", "result": 650, "unit": "µM"}, {"measurement": "Kd", "setting": "[1]", "result": 330, "unit": "µM"}, {"measurement": "Kd", "setting": "[2]", "result": 250, "unit": "µM"}]}, {"molecule": "MRG2 chromodomain (MRG2^CD) (domain or fragment, Arabidopsis, MRG2 of Arabidopsis, chromodomain; Homodimer by SEC-MALS; also called wild-type MRG2^CD; source: purified) HFEEGERVLAKHSDCFYEAKVLKVEFKDNEWKYFVHYIGWNKSWDEWIRLDCLLKHSDENIEKQKEQGLKQQG", "values": [{"measurement": "stoichiometry N", "setting": "[4]", "result": 2}, {"measurement": "oligomerization in crystal and in solution (in words)", "setting": "[5]", "result": "form dimers both in crystal and in solution"}, {"measurement": "Observed molar mass by SEC-MALS", "setting": "[5]", "result": "20.7 kDa and 20.74 ± 3.05 kDa"}]}, {"molecule": "MRG2^CDE75A: point mutant of MRG2 chromodomain disrupting hydrogen bonding and electrostatic interactions (protein) HFEEGERVLAKHSDCFYEAKVLKVAFKDNEWKYFVHYIGWNKSWDEWIRLDCLLKHSDENIEKQKEQGLKQQG", "values": [{"measurement": "Observed molar mass by SEC-MALS", "setting": "[5]", "result": "12.5 kDa and 12.47 ± 0.92 kDa"}]}]}
